The values below come from US6258776A, “Calcium-regulated kinase” (priority 1997, dated 2001).

Data set [1] has as its system S100 proteins, including S100B. To be noted: cited from earlier work.
Data set [2] concerns M960618 melanoma cells (Ndr activity). The data set can be described thus: W-7 effect on Ndr activity in S100B-positive melanoma cells. To be noted: Homo sapiens, 1.25 h; read-out: reduction of Ndr activity. The data set is classed as cell-based.
The test system of a further data set is PP2A. To be noted: concentrations used in cells (okadaic acid 1 μM, cyclosporin A 1 μM); cited from earlier work.
For data set [3], the system named is protein phosphatase 1 (PP1). Particulars: concentrations used in cells; cited from earlier work.
For a further data set, the system named is HA-Ndr. In words: in vitro incubation of immunoprecipitated HA-Ndr with PP2A. To be noted: PP2A plus 100 nM okadaic acid. The format is biochemical. On the procedure: In order to provide evidence that PP2A directly interacts with and thereby affects Ndr activity, HA-Ndr is immunoprecipitated from cells treated with 20 μM A23187 or with solvent alone for 5 min. In parallel, HA-Ndr is immunoprecipitated from cells treated with 1 μM okadaic acid or solvent alone ("Control") for 1 h. Each immunoprecipitate is then incubated in vitro for 1 h with either buffer alone, with purified PP2A (dimeric form consisting of catalytic subunit and 65 kDa regulatory subunit) or with PP2A plus 100 nM okadaic acid. Thereafter, the immunoprecipitates are washed and assayed for Ndr peptide kinase activity as described in Example 5.

Another data set has as its system HA-Ndr WT. To be noted: 1 μM, 1 h. On the procedure:
COS-1 cells expressing HA-Ndr WT (as in Example 5) are treated either with solvent alone (Control) or with a panel of cell permeable protein phosphatase inhibitors. The cells are then extracted, HA-Ndr is immunoprecipitated with the anti-HA mAb 12CA5, and the kinase activity of Ndr measured as before, using the peptide substrate.

The subject of the next data set is S100B-Ndr. In words: inhibition of binding of S100B to Ndr.
Data set [4] concerns the target T1, GST-Ndr (Homo sapiens, UniProt Q15208).
T1 construct: made in house
In words: preincubation of immobilised GST-Ndr followed by peptide kinase assay. The data set is classed as biochemical. Here is the method:
Activation of Ndr by S100B appears to be independent of kinase autophosphorylation. However, increased autophosphorylation is observed: GST-Ndr is immobilised on agarose and preincubated with or without Ca^2+ -S100B, in the presence or absence of Mg-ATP (to either allow or not allow autophosphorylation). The agarose beads are then washed and assayed for Ndr activity as set out herein with radiolabelled ATP and peptide substrate, and in the presence or absence of Ca^2+ -S100B. Preincubation of GST-Ndr with Mg-ATP alone increases its peptide kinase activity, showing that autophosphorylation activates Ndr. […] Preincubation with Ca^2+ S100B alone has no effect, because activation by Ca^2+ -S100B in the preincubation step is mediated by Ndr autophosphorylation.
Ca^2+ -S100B increases the rate Ndr autophosphorylation by 2.5-fold, and it increases autophosphorylation-dependent Ndr activation by 2-fold. However, the total activation of Ndr by Ca^2+ -S100B is larger than this (5- to 10-fold). Thus, the increased autophosphorylation of Ndr caused by Ca^2+ -S100B is not by itself sufficient to account for Ndr activation. In addition, Ca^2+ -S100B probably stimulates Ndr kinase activity directly, in an autophosphorylation-independent manner.

The target of data set [5] is T1, GST-Ndr. In words: Ndr autophosphorylation assay. The data set is classed as biochemical. Here is the method: In immune complex kinase assays and autophosphorylation assays (see below), COS-1 cells are transfected as described above or with pECE-Ndr-K118A. After 72 h, cells are washed with ice-cold PBS and lysed in lysis buffer (20 mM Tris-HCl pH 8.0, 150 mM NaCl, 1% (v/v) NP-40, 10% (v/v) glycerol, 5 mM EDTA, 0.5 mM EGTA, 0.5 mM phenylmethyl-sulfonyl fluoride, 4 μM leupeptin, 1 mM benzamidine, 1 μM microcystin and 1 mM Na3 VO4). Lysates are centrifuged at 14,000 g for 20 min. Duplicate aliquots of supernatant (250 μg, 2.5 mg/ml) are incubated for 2 h at 0° C. with 10 μg/ml Ab^1-465. Immune complexes are precipitated by addition of 2 μl protein A-Sepharose (Pharmacia) and mixing for 1 h. The beads are then washed twice with lysis buffer, once with lysis buffer containing 1 M NaCl, with lysis buffer again, and finally twice with 20 mM Tris-HCl pH 7.5. […] After 60 min at 30° C., phosphate incorporation into the peptide is quantitated as described above.
The proteins are added together with Ca^2+ into GST-N dr peptide kinase assays. […] The increased kinase activity observed in the presence of S100A1 and S100B is not due to contaminating kinase activity, because no activity is recorded when kinase-negative GST-Ndr, containing a point mutation (Lys^118→Ala) in the ATP binding pocket, is used in place of wild-type GST-Ndr. […]

In another data set the test system is Ndr Δ1-84. The data set can be described thus: immune complex kinase assay with S100B and Ca^2+, Ndr lacking amino terminal domain. The data set is classed as biochemical, human. Here is the method:
(§1) In immune complex kinase assays and autophosphorylation assays (see below), COS-1 cells are transfected as described above or with pECE-Ndr-K118A. After 72 h, cells are washed with ice-cold PBS and lysed in lysis buffer (20 mM Tris-HCl pH 8.0, 150 mM NaCl, 1% (v/v) NP-40, 10% (v/v) glycerol, 5 mM EDTA, 0.5 mM EGTA, 0.5 mM phenylmethyl-sulfonyl fluoride, 4 μM leupeptin, 1 mM benzamidine, 1 μM microcystin and 1 mM Na3 VO4). Lysates are centrifuged at 14,000 g for 20 min. Duplicate aliquots of supernatant (250 μg, 2.5 mg/ml) are incubated for 2 h at 0° C. with 10 μg/ml Ab^1-465. Immune complexes are precipitated by addition of 2 μl protein A-Sepharose (Pharmacia) and mixing for 1 h. The beads are then washed twice with lysis buffer, once with lysis buffer containing 1 M NaCl, with lysis buffer again, and finally twice with 20 mM Tris-HCl pH 7.5. Beads are resuspended in 30 μl buffer containing 20 mM Tris-HCl pH 7.5, 10 mM MgCl2, 100 μM CaCl2, 1 mM dithiothreitol, 100 μM [γ-^32 P] ATP (0.5 μCi/μls), 1 mM Ndr substrate peptide ([…], SEQ. ID. No. 1), 1 μM cAMP-dependent protein kinase inhibitor peptide (PKI; purchased from Bachem, Bubendorf, Swit zerland), 4 μM leupeptin, 1 mM benzamidine, 1 μM microcystin and, in some assays, 20 μM bovine S100B. After 60 min at 30° C., phosphate incorporation into the peptide is quantitated as described above. […]

The next data set has as its system Ndr. The data set can be described thus: Ndr activity in cell lines with and without S100B expression. The data set is classed as cell-based, human. To be noted: p<0.05, two-tailed Students' t test. On the procedure:
COS cells are transfected with pECE-Ndr or with empty vector (pECE). 20 μg of these extracts are immunoprecipitated with anti-Ndr (which has been covalently cross-linked to protein A-Sepharose using dimethyl pimelimidate). 400 μg of extract from HeLa cells is immunoprecipitated in parallel. The immunoprecipitates are separated by SDS-PAGE and then immunoblotted using biotinylated anti-Ndr and streptavidin-peroxidase. […] A band of ~53 kDa is also present in HeLa and COS-1 cells and probably represents a proteolytic fragment of full-length Ndr.
Using the method described above, the 12 cell lines are analysed for Ndr abundance. The amount of Ndr (in ng per 400 μg cell extract) is quantitated by densitometry of the blots, and comparison with blots containing known amounts of GST-Ndr. The same cell lines are also assayed for the presence or absence of S100B, by immunoprecipitation of cell extracts with anti-S100B, followed by immunoblotting of the precipitates.

The next data set concerns Ndr Δ65-81. In words: immune complex kinase assay with S100B and Ca^2+, Ndr deletion of amino acids 65-81. The data set is classed as biochemical, human. Here is the method:
as §1

In a further data set the test system is wild-type Ndr. The data set can be described thus: immune complex kinase assay with S100B and Ca^2+, wild-type Ndr. The format is biochemical, human. To be noted: Ca^2+ -S100B. Here is the method: as §1
The target of data set [6] is T1, GST-Ndr. The data set can be described thus: GST-Ndr peptide kinase assay with calcium-binding proteins. The format is biochemical. On the procedure: 1 μg GST-Ndr WT or GST-Ndr K118A, either in solution or immobilised on glutathione-agarose beads, is assayed in a 20 μl reaction containing 20 mM Tris-HCl pH 7.5, 5 mM MgCl2, 1 mM dithiothreitol, 100 μM [γ-^32 P] […] Reactions are supplemented with either 2 mM EGTA or various concentrations of CaCl2. Bovine CaM, bovine S100B (both from Sigma) or recombinant calcium-binding proteins. After incubation at 30° C. for 60 min, aliquots of the reaction are spotted on to P81 phosphocellulose paper and counted as above.
In brief, coding regions are cloned into the PGEMEX expression vector (Promega) and resultant plasmids used to transform E. coli BL-21 LysS cells. After induction, S100 proteins are purified by ammonium sulphate precipitation followed by Ca^2+ -dependent phenyl-Sepharose chromatography.
The proteins are added together with Ca^2+ into GST-N dr peptide kinase assays. The proteins tested comprised S100A1 (S100α), S100A2 (S100L), S100A4 (CAPL), S100A6 (calcyclin) and S100B (S100β); α-parvalbumin is included as a negative control.
In order to estimate the binding affinity of S100B for Ndr, kinase assays are performed in which GST-Ndr is mixed with various concentrations of purified bovine S100B homodimer, in the presence or absence of calcium.
To determine whether activation of Ndr by S100B occurs at physiological Ca^2+ concentrations, Ndr activity is assayed with or without added S100B over a range of Ca^2+ concentrations.

T1 sequence (Q15208 whole entry): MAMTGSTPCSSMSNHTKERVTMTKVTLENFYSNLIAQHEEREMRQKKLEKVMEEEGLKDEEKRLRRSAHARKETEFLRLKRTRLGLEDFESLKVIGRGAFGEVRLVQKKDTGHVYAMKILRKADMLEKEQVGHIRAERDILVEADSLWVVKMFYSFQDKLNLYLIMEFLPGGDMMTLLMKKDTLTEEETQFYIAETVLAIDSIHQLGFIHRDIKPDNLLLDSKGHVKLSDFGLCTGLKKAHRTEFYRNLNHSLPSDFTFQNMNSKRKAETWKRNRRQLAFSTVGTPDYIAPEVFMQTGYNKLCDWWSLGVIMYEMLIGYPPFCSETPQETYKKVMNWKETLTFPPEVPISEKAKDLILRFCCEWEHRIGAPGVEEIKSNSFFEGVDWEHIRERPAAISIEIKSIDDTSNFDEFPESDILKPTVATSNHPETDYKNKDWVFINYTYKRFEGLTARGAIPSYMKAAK

Regarding `NCCCCCCNS(=O)(=O)c1cccc2c(Cl)cccc12` [W-7], in data set [1], the “binding to S100 proteins” value is “binds to several S100 proteins, including S100B, in a Ca^2+ -dependent manner”. Also, the inhibition at 50 µM in data set [2] is approximately 80%.

Regarding `C=C1[C@@H](O)[C@@H]2O[C@]3(CC[C@H](/C=C/[C@@H](C)[C@@H]4CC(C)=C[C@@]5(O[C@H](C[C@@](C)(O)C(=O)O)CC[C@H]5O)O4)O3)CC[C@H]2O[C@@H]1[C@@H](O)C[C@H](C)[C@H]1O[C@@]2(CCCCO2)CC[C@H]1C` [okadaic acid], the “inhibition of intracellular PP2A” value in the data set with PP2A is given as “completely inhibits intracellular PP2A”. In data set [3], the “effect on PP1” value is “does not affect protein phosphatase 1 (PP1)”. The “prevention of inactivation of HA-Ndr by PP2A” value with HA-Ndr is “inactivation is prevented”. For the same molecule, the “activation of Ndr” value with HA-Ndr WT is given as ~ 8 fold.

As for “KRLRRSAHARKETEFLRLKRTRLGL [SEQ ID No.32]”, the “inhibition of binding of S100B to Ndr” value in the data set with S100B-Ndr is “effectively inhibit binding of S100B to Ndr”.

B1: S100B: EF hand calcium-binding protein of the S100 family; bovine S100B homodimer or recombinant (protein, UniProt P02638 2-92, looked up)
Protein S100-B: SELEKAVVALIDVFHQYSGREGDKHKLKKSELKELINNELSHFLEEIKEQEVVDKVMETLDSDGDGECDFQEFMAFVAMITTACHEFFEHE
For B1, in the data set with GST-Ndr [4] (Ca^2+ -S100B), the “increase in autophosphorylation-dependent Ndr activation” value was determined as 2 fold. The “peptide kinase activity after preincubation” value is listed as “no effect” in the data set with GST-Ndr [4] (preincubation with Ca^2+ -S100B alone); “even greater autoactivation of the peptide kinase activity” with GST-Ndr [4] (preincubation with Mg-ATP and Ca^2+ -S100B). Further, in the data set with GST-Ndr [5], the Ndr autophosphorylation result was “stimulated Ndr autophosphorylation”. Moreover, the “increase in rate of Ndr autophosphorylation” value with GST-Ndr [5] (Ca^2+ -S100B) is 2.5 fold. For the same molecule, the “response to S100B” value in the data set on Ndr Δ1-84 is given as “failed to respond to S100B”. Further, the “Ndr average specific activity, S100B-positive versus S100B-negative cell lines” value with Ndr was ~ 2 fold. Besides, the “sensitivity to S100B” value in the data set on Ndr Δ65-81 is listed as “ablated its sensitivity to S100B”. For the same molecule, in the data set with wild-type Ndr, the “degree of activation of immunoprecipitated Ndr” value is ~ 2 fold. For the same molecule, the “maximal activation of Ndr” value with GST-Ndr [6] (2 mM EGTA, without calcium) is listed as “much lower”; in the data set with GST-Ndr [6] (presence of calcium, bovine S100B homodimer) it was ~ 7 fold. In addition, the “activation of Ndr in the absence of calcium” value with GST-Ndr [6] (absence of calcium) was “partial activation of Ndr in the absence of calcium”. The “increase in Ndr kinase activity” value in the data set with GST-Ndr [6] (added together with Ca^2+, 60 min, 30° C.) is listed as 5-6 fold.
